Patent US20200308299A1, “ANTI-GPC-1 ANTIBODY” (National University Corporation Kochi University, priority 2017, published 2020)

Legend:
DU145 cells = test: ADC assay combining anti-GPC-1 antibody and MMAF binding secondary antibody in DU145 cells; assay type: cell-based; details: 3 days; for EC50 values against DU145 cells: primary antibody plus MMAF secondary antibody
Method: 2000 DU145 cells were added to a 96-well plate at 80 μl. The cells were cultured overnight at 37° C. in a 5% CO2 incubator. The next day, 10 μl each of anticancer agent binding secondary antibody (2 μg/ml) and primary antibody concentrated 10-fold relative to the final concentration was added to each well, so that the total amount was 100 μl. The cells were cultured for 3 days at 37° C. in a 5% CO2 incubator. The cell viability was measured by using a CellTiter-Glo Luminescent Cell Viability Assay reagent to detect the amount of ATP. RPMI1640+10% FBS+1% PS was used as the medium. The final concentrations of the primary antibodies were […]. 2 μg/ml of Fab-aMFc-CL-MMAF (model number AM202AF-50, Moradec) was used as the secondary antibody. The EC50 value was analyzed with GraphPad Prism 6. The same experiment was conducted using 4000 MDA-MB231 cells as the control.

TE14 cells = test: ADC assay combining anti-GPC-1 antibody and MMAF binding secondary antibody, TE14 cells; assay type: cell-based; details: primary antibody plus MMAF secondary antibody
Method: FIG. 1 depicts a schematic diagram of an ADC used in an assay. This Example used a secondary antibody (MORADEC) to the anti-GPC1 antibody made in Example 1, to which an anticancer agent (MMAF) was bound via a linker.
2000 TE14 cells were added to a 96-well plate at 80 μl. The cells were cultured overnight at 37° C. in a 5% CO2 incubator. The next day, 10 μl of an anticancer agent bound secondary antibody and 10 μl of a primary antibody concentrated 10-fold relative to the final concentration was added to each well, so that the total amount was 100 μl. The cells were cultured for 6 days at 37° C. in a 5% CO2 incubator. The cell viability was measured by using a CellTiter-Glo Luminescent Cell Viability Assay reagent to detect the amount of ATP. RPMI1640+10% FBS+1% PS was used as the medium. The final concentrations of the primary antibody were 0, 0.004, 0.0156, 0.0625, 0.25, and 1.0 nM. 2 μg/ml of Fab-aMFc-CL-MMAF (model number: AM202AF-50, Moradec) was used as the secondary antibody.

| Molecule | EC50 values against DU145 cells (DU145 cells) | EC50 values against TE14 cells (TE14 cells) | growth suppressing effect against DU145 cells (DU145 cells; primary antibody plus MMAF secondary antibody 2 μg/ml) |
| --- | --- | --- | --- |
| clone 01a002: anti-human Glypican-1 antibody, heavy chain SEQ ID NO: 126, light chain SEQ ID NO: 128 (antibody) heavy: MKHLWFFLLLVAAPRWVLSEVQLQQSGPELVKPGASVKISCKSSGYSFTRYYMHWVKHSPEKSLEWIGEINPSTGDTTYNQKFKAKATLTVDKSSSTAYMQLKSLTSEDSAVYYCAREKRDDGVLAYWGQGTLVTVSSAKTTAPSVYPLAPVCGDTTGSSVTLGCLVKGYFPEPVTLTWNSGSLSSGVHTFPAVLQSDLYTLSSSVTVTSSTWPSQSITCNVAHPASSTKVDKKIEPRGPTIKPCPPCKCPAPNLLGGPSVFIFPPKIKDVLMISLSPIVTCVVVDVSEDDPDVQISWFVNNVEVHTAQTQTHREDYNSTLRVVSALPIQHQDWMSGKEFKCKVNNKDLPAPIERTISKPKGSVRAPQVYVLPPPEEEMTKKQVTLTCMVTDFMPEDIYVEWTNNGKTELNYKNTEPVLDSDGSYFMYSKLRVEKKNWVERNSYSCSVVHEGLHNHHTTKSFSRTPGK light: MRLLAQLLGLLMLWVPGSSGDIQMTQSPKFLPVSAGDRVTMTCKASQSVGNNVAWYQQKPGQSPKLLIYYASNRYTGVPDRFTGSGSGTDFTFTISSVQVEDLAVYFCQQHYSSPLTFGAGTKLELKRADAAPTVSIFPPSSEQLTSGGASVVCFLNNFYPKDINVKWKIDGSERQNGVLNSWTDQDSKDSTYSMSSTLTLTKDEYERHNSYTCEATHKTSTSPIVKSFNRNEC | excellent EC50 values | excellent EC50 values | high growth suppressing effect |
| clone 01a016: anti-human Glypican-1 antibody, heavy chain SEQ ID NO: 134, light chain SEQ ID NO: 136 (antibody) heavy: MKHLWFFLLLVAAPRWVLSQVHLQQSGPELVKPGASVKISCKASGYTFTDYYINWVKQKPGQGLEWIGYIDPYNDGSKYNEKFKGKATLTSDKSSSTAYMELSSLTSEDSAVYYCARTPYYSFYSYGFYFDYWGQGTTLTVSSAKTTAPSVYPLAPVCGDTTGSSVTLGCLVKGYFPEPVTLTWNSGSLSSGVHTFPAVLQSDLYTLSSSVTVTSSTWPSQSITCNVAHPASSTKVDKKIEPRGPTIKPCPPCKCPAPNLLGGPSVFIFPPKIKDVLMISLSPIVTCVVVDVSEDDPDVQISWFVNNVEVHTAQTQTHREDYNSTLRVVSALPIQHQDWMSGKEFKCKVNNKDLPAPIERTISKPKGSVRAPQVYVLPPPEEEMTKKQVTLTCMVTDFMPEDIYVEWTNNGKTELNYKNTEPVLDSDGSYFMYSKLRVEKKNWVERNSYSCSVVHEGLHNHHTTKSFSRTPGK light: MRLLAQLLGLLMLWVPGSSGDIVLTQSPASLAVSLGQRATISCRASKSVSTSSYSYMHWYQQKPGQPPKLLIKYASYLESGVPARFSGSGSGTDFTLNIHPVEEEDAATYYCQHSREFPLTFGAGTKLELKRADAAPTVSIFPPSSEQLTSGGASVVCFLNNFYPKDINVKWKIDGSERQNGVLNSWTDQDSKDSTYSMSSTLTLTKDEYERHNSYTCEATHKTSTSPIVKSFNRNEC | excellent EC50 values | excellent EC50 values |  |
| clone 01a009: anti-human Glypican-1 antibody, heavy chain SEQ ID NO: 150, light chain SEQ ID NO: 152 (antibody) heavy: MKHLWFFLLLVAAPRWVLSEVQLQQSGPELVKPGASVEISCKASGYSFTGYFMNWVKQSQGKSLEWIGRINPDNGDIFYNQKFKGKATLTVDKSSSTAHMELRSLTSEDSAVYYCARSWNWYFDVWGAGTTVTVSSAKTTAPSVYPLAPVCGDTTGSSVTLGCLVKGYFPEPVTLTWNSGSLSSGVHTFPAVLQSDLYTLSSSVTVTSSTWPSQSITCNVAHPASSTKVDKKIEPRGPTIKPCPPCKCPAPNLLGGPSVFIFPPKIKDVLMISLSPIVTCVVVDVSEDDPDVQISWFVNNVEVHTAQTQTHREDYNSTLRVVSALPIQHQDWMSGKEFKCKVNNKDLPAPIERTISKPKGSVRAPQVYVLPPPEEEMTKKQVTLTCMVTDFMPEDIYVEWTNNGKTELNYKNTEPVLDSDGSYFMYSKLRVEKKNWVERNSYSCSVVHEGLHNHHTTKSFSRTPGK light: MRLLAQLLGLLMLWVPGSSGDIQMTQSPASLSASVGETVTITCRASENIYSYLAWYQQKQGKSPQLLVYNAKTLAEGVPSRFSGSGSGTQFSLKINSLQPEDFGSYYCQHHYGTPYTFGSGTKLEIKRADAAPTVSIFPPSSEQLTSGGASVVCFLNNFYPKDINVKWKIDGSERQNGVLNSWTDQDSKDSTYSMSSTLTLTKDEYERHNSYTCEATHKTSTSPIVKSFNRNEC | excellent EC50 values | excellent EC50 values |  |

Continued, in another order:

| EC50 values against DU145 cells (DU145 cells) | EC50 values against TE14 cells (TE14 cells) | Molecule | growth suppressing effect against DU145 cells (DU145 cells; primary antibody plus MMAF secondary antibody 2 μg/ml) |
| --- | --- | --- | --- |
| excellent EC50 values | excellent EC50 values | clone 01a026: anti-human Glypican-1 antibody, heavy chain SEQ ID NO: 146, light chain SEQ ID NO: 148 (antibody) heavy: MKHLWFFLLLVAAPRWVLSQVHLQQSGAELVRPGTSVKMSCKAAGYTFTNYWIGWVKQRPGHGLEWIGDIYPGGGYTHYNEKFKGKATLTADTSSSTAYMQLSSLTSEDSAIYYCARERVYYDGSRFFDVWGAGTTVTVSSAKTTAPSVYPLAPVCGDTTGSSVTLGCLVKGYFPEPVTLTWNSGSLSSGVHTFPAVLQSDLYTLSSSVTVTSSTWPSQSITCNVAHPASSTKVDKKIEPRGPTIKPCPPCKCPAPNLLGGPSVFIFPPKIKDVLMISLSPIVTCVVVDVSEDDPDVQISWFVNNVEVHTAQTQTHREDYNSTLRVVSALPIQHQDWMSGKEFKCKVNNKDLPAPIERTISKPKGSVRAPQVYVLPPPEEEMTKKQVTLTCMVTDFMPEDIYVEWTNNGKTELNYKNTEPVLDSDGSYFMYSKLRVEKKNWVERNSYSCSVVHEGLHNHHTTKSFSRTPGK light: MRLLAQLLGLLMLWVPGSSGDIVMSQSPKFLPVSAGDRVTMTCKASQSVGNNVAWYQQKPGQSPKLLIYYASNRYTGVPDRFTGSGSGTDFTFTISSVQVEDLAVYFCQQHYSSPWTFGGGTKLEIKRADAAPTVSIFPPSSEQLTSGGASVVCFLNNFYPKDINVKWKIDGSERQNGVLNSWTDQDSKDSTYSMSSTLTLTKDEYERHNSYTCEATHKTSTSPIVKSFNRNEC |  |
| excellent EC50 values | excellent EC50 values | clone 01a030: anti-human Glypican-1 antibody, heavy chain SEQ ID NO: 154, light chain SEQ ID NO: 156 (antibody) heavy: MKHLWFFLLLVAAPRWVLSQVQLQQSGAELVRPGTSVKMSCKAAGYTFTNYWIGWVKQRPGHGLEWIGDIYPGGGYTHYNEKFKGKATLTADTSSSTAYMQLSSLTSEDSAIYYCARERVYYDGSRYFDVWGAGTTVTVSSAKTTAPSVYPLAPVCGDTTGSSVTLGCLVKGYFPEPVTLTWNSGSLSSGVHTFPAVLQSDLYTLSSSVTVTSSTWPSQSITCNVAHPASSTKVDKKIEPRGPTIKPCPPCKCPAPNLLGGPSVFIFPPKIKDVLMISLSPIVTCVVVDVSEDDPDVQISWFVNNVEVHTAQTQTHREDYNSTLRVVSALPIQHQDWMSGKEFKCKVNNKDLPAPIERTISKPKGSVRAPQVYVLPPPEEEMTKKQVTLTCMVTDFMPEDIYVEWTNNGKTELNYKNTEPVLDSDGSYFMYSKLRVEKKNWVERNSYSCSVVHEGLHNHHTTKSFSRTPGK light: MRLLAQLLGLLMLWVPGSSGDIKMTQSPKFLPVSAGDRVTMTCKASQSVGNNVAWYQQKPGQSPKLLIYYASNRYTGVPDRFTGSGSGTDFTFTISSVQVEDLAVYFCQQHYSSPWTFGGGTKLEIKRADAAPTVSIFPPSSEQLTSGGASVVCFLNNFYPKDINVKWKIDGSERQNGVLNSWTDQDSKDSTYSMSSTLTLTKDEYERHNSYTCEATHKTSTSPIVKSFNRNEC |  |
| excellent EC50 values | excellent EC50 values | clone 4: anti-Glypican-1 antibody, heavy chain SEQ ID NO: 198, light chain SEQ ID NO: 200; sequence from WO 2015/098112 (antibody) heavy: AVTLDESGGGLQTPGRALSLVCKASGFTFSRYAMYWVRQAPGKGLEFVAGIGNTGRYTGYGSAVKGRATISRDSGQSTVRLQLNNLRAEDTGNYYCAKSVSPYCCDAADIDAWGHGTEVIVSS light: ASTQPSSVSANPGETVKITCSGGSSGYAYGWYQQKSPGSAPVTLLYSNNNRPSDIPSRFSGSKSGSTATLTITGVQAEDEAVYFCGSVDSSSYAGIFGAGTTLTVL |  |
